Kd data for 6 sequences are collected here from publication PMC5900569.

The test system of this data set is cTSN (Tudor staphylococcal nuclease) (Caenorhabditis elegans). Put plainly: filter binding. Conditions: 50 mM HEPES pH 7.0, 250 mM NaCl, 5 mM beta-mercaptoethanol, 2 mM EDTA, 30 min, room temperature, cTSN 0-2 uM.
Where [1] appears, read: inosine (A-to-I edited, positions in Figure 3).

“ACUGGACAAAUACUCCGAGG / CCUCGGAGUAUUUGUCCAGU [dsRNA 20 bp]” yielded a Kd of 393 nM.
For the sequence “CAGUCACCCAUAAAGUAGAAAGCACUACUGUGGGUAGUGUUUCCUACUUUAUGGAUGAGUG [pre-miR142-AtoI]”, the dissociation constant (Kd) under setting [1] was found to be 74.6 nM.
Still for that read-out and setting: as for “CAGUCACCCAUAAAGUAGAAAGCACUAC / GUAGUGUUUCCUACUUUAUGGAUGAGUG [pre-miR142Δloop-AtoI]”, the figure is 68.3 nM.
Take ACUGGACAAAUACUCCGAGG [ssRNA 20 nt]: the Kd worked out at 767 nM.
Same read-out and setting: under “CAGUCACCCAUAAAGUAGAAAGCACUAC / GUAGUGUUUCCUACUUUAUGGAUGAGUG [pre-miR142Δloop]” stands 236 nM; under “CAGUCACCCAUAAAGUAGAAAGCACUACUGUGGGUAGUGUUUCCUACUUUAUGGAUGAGUG [pre-miR142]”, 136 nM.
